Measured values: the DeepSol protein solubility set

Test: soluble on expression in E. coli; label from the status in PepcDB or PDB records

| Sequence | soluble on expression in E. coli |
| --- | --- |
| MGMSATMGDSASIPGVFFADFGPAPPEITPEGYHEVELNKTKWVLPQWYNSLKPLGEGAYGVVCTAEYEPTGDRVAIKKFFRPFQSTIHAKRTYRELKLLRTLQHDNVLEMIDVFTPDPDASSLNNVYFVSVLMGSDLQNIMKIQRLTDEQIQLLIYQVLRGLKYIHSAGIIHRDLKPSNIAVNERCEVKVFLSFSQLSFLILSFFKILDFGLARAQDAEMTGYVATRWYRAPEIMLNWMHYTQTVDVWSVGCILAELVSGRPLFPGDDHIDQLTKIMSVVGTPKEEFWSKIQSEEARNYIKNRSPIIRQDFVTLFPMASPYALELLEMMLILDPDRRISVSSALRHDYLREYSVPNDEPVAMDTVINSIVTIDPAEERATTLSDWRELIWNEIRLFQNSARRLSFVSCTDTEEEPMKI | not soluble |
| MGSDKIHHHHHHMKIGAVLTREQVISARYVHHGLLTPFPDPLVAAQRLAGVQAQILPAAGLALWNRVAGFSADQLEHLLYHERSLVRLWGQRGTLHLYAMTDWPLVYGMQAGQATYWEQEAQRDGWAVDEYEAFIARVGDLLYEHETLGRSDLRRLLPAIDQRHLSGWGGVFAILTRRGLACHAAPRGGEARMTHRLRWRPDLVWEPPDTDTANAEMLRRYLAVFGPVRLVDMTCWRGRTQAEMKRWLALIGEEVVRVSVDGQPAWWLQSYLDRLADLPTPADLPPHLLGRFDPLLLGTRDKSWLIDADVYNRVWRPAGHIEATMLVHGRIAGTWRYDWRGSSIVVTLRPFKPLPPSERIRIESLAAGVAEHFAAPLGDCRWEAVA | not soluble |
| KLLEHVRNILPPNITCLYIRQAEALGLGHAVLCARAAIGDEPFAVILADDLIDAPKGALKQMVEVYGRSGNSILGVETVEASQTGSYGIVETEQLKQFQRITGIVEKPKPEDAPSNLAVVGRYILTPRIFDLLTNLPRGAGNEIQLTDGIAKLLDHEFVLAHPFEGTRYDCGSKLGYLEATVAYGLKHPETGEPFRRLLEKYRTE | not soluble |
| METTFALLNFKESLCYIYPPTEPVRYVSSIVALNVHSPNGTGDWHSAKALSDRAYPEKFYIYGENQERNTNHLFGDNGIIDGTDRLNKMGYFPENIPVWLADHPRACVDYLYTAVLQTGSIGRVILDDWFPSDEDKQSVYDLLNQIEPHLNTQEWENLQLWKRKNPIM | not soluble |
| MGSSHHHHHHSSGRENLYFQGMPIITFLPSGKRAEVDEGKTILSAAQEIGEGIRSLCGGKGSCGKCLVVVRKGDVEILSEEAHEKFVREKGYYLACQTAVKGDVEVFIPPESRLERQQILKDFFISSKEFNPVVKVEFCSDAFLPEVLSQKGLRLACSTDVEEGDFGLVVRGKEVIDVLPDEKAFGLAVDVGTTTIVAALVDLKDGKVVNVASDYNGQIIYGEEVLSRVEFARSRKDGVEVLQRAVVESINKLIDKLLEGYATPDRIYDVVAAGNTIMTHFLVGKDVEYLFSSPDVKVEREGFVVNASEIGLKVNSNAELFCLPPVGRFVGGDIVGDILASRIVDSATISLMVDLGTNGEIVVGSEGWAMATSVASGPAFEGYEIKHGSRAVEGAIDHVEIEGEEVRYTVIGNGKPRSICGSGLIDLMAEMFKNGILDATGAMNKKHPRVRRGEDGYEFVVVEAEKSATAKDIVFTEKDVETLLKSKAAVCAGIAVLIKKAGLGLEDIDEFYIAGAFGYYINFDNAVTIGLFPELKAEVKQIGNGSLAGAYLALVSERKRKLAETIANAFAYFDLSTDADFVEEYRAALSLPGRPELFPETYAKYV | soluble |
| MTQTPDREKALELAVAQIEKSYGKGSVMRLGDEARQPISVIPTGSIALDVALGIGGLPRGRVIEIYGPESSGKTTVALHAVANAQAAGGVAAFIDAEHALDPDYAKKLGVDTDSLLVSQPDTGEQALEIADMLIRSGALDIVVIDSVAALVPRAELEGEMGDSHVGLQARLMSQALRKMTGALNNSGTTAIFINQLRDKIGVMFGSPETTTGGKALKFYASVRMDVRRVETLKDGTNAVGNRTRVKVVKNKCLAPFKQAEFDILYGKGISREGSLIDMGVDQGLIRKSGAWFTYEGEQLGQGKENARNFLVENADVADEIEKKIKEKLGIGAVVTDDPSNDGVLPAPVDF | soluble |
| MKTNVIIDGDACPVVNSVIELTKGTGIFVTILRSFSHFSQQIQPEHVKIVYVDDGPDAVDYKIVELASNNDIVITQDYGLASLLIDKVHTVMHHKGNIYHSNNIQSLLDQRYLNAQIRRRGLEHHHHHH | not soluble |
| MGSSHHHHHHSSGRENLYFQGPSNSDAAHAFWSTQPVPQTEDEDEKIVFAGPMDEPKTVADIPEEPYPIASTFEWWTPNMEAADDIHAIYELLRDNYVEDDDSMFRFNYSEEFLQWALCPPNYIPDWHVAVRRKADKKLLAFIAGVPVTLRMGTPKYMKVKAQEKGEGEEAAKYDEPRHICEINFLCVHKQLREKRLAPILIKEATRRVNRTNVWQAVYTAGVLLPTPYASGQYFHRSLNPEKLVEIRFSGIPAQYQKFQNPMAMLKRNYQLPSAPKNSGLREMKPSDVPQVRRILMNYLDSFDVGPVFSDAEISHYLLPRDGVVFTYVVENDKKVTDFFSFYRIPSTVIGNSNYNLLNAAYVHYYAATSIPLHQLILDLLIVAHSRGFDVCNMVEILDNRSFVEQLKFGAGDGHLRYYFYNWAYPKIKPSQVALVML | soluble |
| MSLRVQLILHLEIPKEVCRSLEVDNYINNSIEINLKCEKKPTLYIKTHSIGSLKSILDDFFRCQNAAMEVYNLIKTYTIRNVTKDDLDDFLELYFKAYRGFDKYYYKKKKWARWYFKWLMKRDEDGFFVCEVNGKPVGFVACDCNWISNIEKREVAEIHEIFVDPDFRGRGIGTALINKAIEYAKKRGRRIVELWVGVENKGAIEFYKRLGFEEKEVVKGWLRMVKRIEGHHHHHH | not soluble |
| MSLKPDNLPVTFGKNDVEIIARETLYRGFSSLDLYRFRHRLFNGQMSHEVRREIFERGHAAVLLPFDPVRDEVVLIEQIRIAAYDTSETPWLLEMVAGMIEEGESVEDVARREAIEEAGLIVKRTKPVLSFLASPGGTSERSSIMVGEVDATTASGIHGLADENEDIRVHVVSREQAYQWVEEGKIDNAASVIALQWLQLHHQALKNEWAEGGSHHHHHH | soluble |
| MQTSPLLTQLMEALRCLPGVGPKSAQRMAFTLLQRDRSGGMRLAQALTRAMSEIGHCADCRTFTEQEVCNICSNPRRQENGQICVVESPADIYAIEQTGQFSGRYFVLMGHLSPLDGIGPDDIGLDRLEQRLAEEKITEVILATNPTVEGEATANYIAELCAQYDVEASRIAHGVPVGGELEMVDGTTLSHSLAGRHKIRF | soluble |
| MDGKLLWSFNSGDAVRSVAISRDGDYVATGSANNYVYLLDSEGKTLWGKKTGSLINSVTMTPNAYYVAAGGSNYNVYLFDRKGEFSWMHNPGYWVSSVSLSSNGSHLAAGSFDDRIYLFNLTGAKLWDYQVKDDVYAVEIAPDSSFIAAGSWDDSIYALNMSGKELEHHHHHH | not soluble |
| MTPNGHHFRTVIYNAAAVGNLQRIKVFTINSRNDRQWIIDCFNSDQDGRYPLVIAARNGHANVVEYLLEIGADPSVRGVVEFDNENIQGTPPLWAASAAGHIEIVKLLIEKANADVNQATNTRSTPLRGACYDGHLDIVKYLLEKGADPHIPNRHGHTCLMIASYRNKVGIVEELLKTGIDVNKKTERGNTALHDAAESGNVEVVKILLKHGSVLMKDIQGVDPLMGAALSGFLDVLNVLADQMPSGIHKRDALKLLGSTLLDKKMDAMSAMNCWKQSMEVPLHADDLRLVREMETFFEPQEVYEYQREAQNIAQVELLDGNIEAQRMQALVIRERILGGAHTDVHYYLRFRGAVYCDMGQMNRCYDLWKHALELQQKHFAPLYYGTITTLQSFHETFSMSLNDFVNNHHANRNLRVRSSWVKYVFNGVCLELERAAAWTGAPLLEDTECCGKERCQHATEESEYKKLVYVAVHLVNVLERLSLPSAHIDDSDEEKEPKADVRRLMIVCHELHIPLLHHTLEERIPDSNSAELGLPKAAVLEQLLELDLDVNATDKNNDTPMHILLRAREFRKSLVRALLVRGTWLFARNRHGDVVLNVMKRMKALNHANFDDLPLGRHITLAGLVANAMRVKYPKKFVGVEEQMPLELRRFYLAH | not soluble |
| MRSTEVGRVVEDFIVLPPTPKSKWKLSDFELLHKLGGGNYGDVHLASVKDCNFVCALKRLSIKKLADFDIATQLRREIEIAFNTRHKYLLRTYAYFFDETDIYLIMEPCSNGMLYTELNRVKCFAPPTAARYVAQLAEALLYLHQHHILHRDIKPENILLDHNNNIKLADFGWSVHDPDNRRKTSCGTPEYFPPEIVGRQAYDTSADLWCLGIFCYELLVGKTPFVGKDTDQICKNIHSMHFKIPENIPSEAKDLIANLLLRDGSRRLALHRVVNHQFLLKYYYLPNNLQPPTGKRPRLDAEPTAGKEN | not soluble |
| MGSDKIHHHHHHMSRRQHFAKVTPLLHRHGDYFVFIGFDYGTANCSVAVMRDGKPHLLKMENDSTLLPSMLCAPTREAVSEWLYRHHDVPADDDETQALLRRAIRYNREEDIDVTAKSVQFGLSSLAQYIDDPEEVWFVKSPKSFLGASGLKPQQVALFEDLVCAMMLHIRQQAQAQLPEAITQAVIGRPINFQGLGGDEANTQAQGILERAAKRAGFRDVVFQYEPVAAGLDYEATLQEEKRVLVVDIGGGTTDCSLLLMGPQWRSRLDREASLLGHSGCRIGGNDLDIALAFKNLMPLLGMGGETEKGIALPILPWWNAVAINDVPAQSDFYSSANGRLLNDLVRDAREPEKVALLQKVWRQRLSYRLVRSAEECKIALSSVAETRASLPFISNELATLISQRGLESALSQPLTRILEQVQLALDNAQEKPDVIYLTGGSARSPLIKKALAEQLPGIPIAGGDDFGSVTAGLARWAEVVFR | not soluble |
| MAHHHHHHMAYLPPNMAERLQMSSSSTEPTTTSSMLPAPHSSANMRHIEGLVVVPGVVKVSRSDVASQYTMPHTNNAPLLFSEPEHRAVDNSSGSNDAQLEPKDPHLGLMPHCLSCTLLTSAGAQEPDDVYGRSMPSSSAVGAVTTELECAVVPTLHASFTPGVSTSIMPAPTEAHSACGSRPLQQPRWGGNYDSGSQCVSFRGADRSNNVSGCGLRLVGDDVEWLQGSFEDSASSPREEVQLSWGHLQRQPCAGKSSAARAVPPALHDVREGTGGEKVLAAHHRFERAVQPQTQRQGVFPSADQENCQAAAMLWAAQQMAVFD | not soluble |
| MKNPYVQITDQEQYKKSIRRIPPKDPNIFLIERPTAGEIIALWWTTSSRGKSTDKYIPKYFKRIYRVDMIKQRKLFIKANVISEENNTYVLTELGEMLVHKYFYIIEEHNNSSNDSFNTERRKLADKILYSLGGEI | not soluble |
| MLKIADKTFQSRLFTGTGKFSNRHVMAEALAASGSELVTMALKRIDLAQRDDDILAPLLSMQMNLLPNTSGAKNAADAVYAAELAREALATNWLKLEIHPDPKYLMPDPIETLLAAEQLVKQGFIVLPYCHADPVLCKRLEEVGCAAVMPLGSPIGSNQGLASKTFLEIIIDQAKVPVIVDAGIGSPSDAAQAMELGADAVLVNTAIAAAHDPIAMAKAFKLAVEAGRMAYESGLPSRVKMATASSPLTGFLDFVS | not soluble |
| GPLGSGGGTIAMLNEISSDTLEQLYSLAFNQYQSGKYEDAHKVFQALCVLDHYDSRFFLGLGACRQAMGQYDLAIHSYEEGAVMDIKEPRFPFHAAECLLQKGELAEAESGLFLAQELIANKPEFKELSTRVSSMLEAIKLKKEMKHE | soluble |
| MQHSLGLIEVSGMSLAITVADVMAKTAQIRLIGVERTIGSGWMLVKIAGDVAAVRTALSAGEETARAHQGFVACTTIARPAKGTGELVSTTKPPRAEPVQKITVLPAVALTASAAHTTTGPESVQEDPDAEKAVPPIREAVEGSTGNIIQVDAINDPVETAREISKPNASAKSPPAEYGEKQSVATVKAFPVMGDIATDLDIPTASARSVAVAQQVKPGISLHQFHYQEKPDDETADAGSQQTGETKQAVAISAKLLVTCKICGDPSCPRHKGQPRSRCIHNQKSVLR | not soluble |
